System: prothrombin

recombinant prothrombin activating protease (rLopap)
prothrombin activation (thrombin formation followed with S-2238 chromogenic substrate): The native Lopap and the rLopap are able to activate prothrombin using preferentially the S-2238 substrate | prothrombin activation, compared with native Lopap: in same concentrations, rLopap is less efficient | prothrombin hydrolysis (SDS-PAGE of fragments; prothrombin 10 uM, rLOPAP 2 uM): Under non-reduced conditions bands of 72 kDa (prothrombin), of 52 kDa probably corresponding to the prothrombin F1.2, one of 36 kDa corresponding to the thrombin or to the prethrombin 2, and one of 24 kDa corresponding to the fragment 1 (F1) of the prothrombin could be observed | prothrombin hydrolysis in presence and absence of Factor Va (SDS-PAGE): The same hydrolysis standards were obtained in presence and in absence of the Factor Va
